Source: paper PMC7396694, “Two MarR-Type Repressors Balance Precursor Uptake and Glycine Betaine Synthesis in Bacillus subtilis to Provide Cytoprotection Against Sustained Osmotic Stress” (Frontiers in Microbiology, 2020)

Columns and labels:
[1] = target: T1, GbsR-Strep-tag II (Bacillus subtilis JH642) (UniProt P71015); experiment: EMSA; conditions: 10 mM Tris pH 8, 150 ug/ml herring sperm DNA, 7.5% glycerol, 1 pmol DNA in 20 ul, 20 min at 25 C; native 8% polyacrylamide gel
T1 sequence: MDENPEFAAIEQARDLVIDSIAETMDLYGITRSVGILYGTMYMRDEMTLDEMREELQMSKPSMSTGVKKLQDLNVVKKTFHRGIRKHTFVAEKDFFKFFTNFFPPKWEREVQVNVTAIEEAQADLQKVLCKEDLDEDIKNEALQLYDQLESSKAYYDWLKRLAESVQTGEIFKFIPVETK

[2] = target: the molecule itself; experiment: SEC; HiLoad 16/600 Superdex 200 pg; 2 ml protein solution (1 mg/ml) loaded immediately after affinity purification; 100 mM potassium phosphate (pH 8), 300 mM NaCl; column standardised with thyroglobulin, albumin, ovalbumin, cytochrome C

## GGGACTTTGACAGTTTAAAAACCATATGTTAGATTAAGGTTGTTAAAAACATTAAATTTTTATTTAACAAACTTTATTTACGTCAAGGAGGCTTAT (double strand) [gbsA fragment with GbsR operator]
[1]
  binding: binds

B1: GbsR-Strep-tag II recombinant protein (natural protein, Bacillus subtilis, UniProt P71015 1-180, looked up)
chain: T1 sequence
notes: GbsR, choline-responsive MarR-type repressor of Bacillus subtilis; coding region of gbsR amplified from chromosomal DNA of B. subtilis JH642; also called GbsR repressor; not shown: Strep-tag II, C-terminal, kept
[2]
  stoichiometry N: 2
